The values below come from paper PMC5095074 (2016).

B1: GST-E-cadherin-cytoplasmic domain (cd) [human] / Purified β-catenin [not stated] (parent complex)
chain 1: RAVVKEPLLPPEDDTRDNVYYYDEEGGGEEDQDFDLSQLHRGLDARPEVTRNDVAPTLMSVPRYLPRPANPDEIGNFIDENLKAADTDPTAPPYDSLLVFDYEGSGSEAASLSSLNSSESDKDQDYDYLNEWGNRFKKLADMYGGGEDD
chain 2: MATQADLMELDMAMEPDRKAAVSHWQQQSYLDSGIHSGATTTAPSLSGKGNPEEEDVDTSQVLYEWEQGFSQSFTQEQVADIDGQYAMTRAQRVRAAMFPETLDEGMQIPSTQFDAAHPTNVQRLAEPSQMLKHAVVNLINYQDDAELATRAIPELTKLLNDEDQVVVNKAAVMVHQLSKKEASRHAIMRSPQMVSAIVRTMQNTNDVETARCTAGTLHNLSHHREGLLAIFKSGGIPALVKMLGSPVDSVLFYAITTLHNLLLHQEGAKMAVRLAGGLQKMVALLNKTNVKFLAITTDCLQILAYGNQESKLIILASGGPQALVNIMRTYTYEKLLWTTSRVLKVLSVCSSNKPAIVEAGGMQALGLHLTDPSQRLVQNCLWTLRNLSDAATKQEGMEGLLGTLVQLLGSDDINVVTCAAGILSNLTCNNYKNKMMVCQVGGIEALVRTVLRAGDREDITEPAICALRHLTSRHQEAEMAQNAVRLHYGLPVVVKLLHPPSHWPLIKATVGLIRNLALCPANHAPLREQGAIPRLVQLLVRAHQDTQRRTSMGGTQQQFVEGVRMEEIVEGCTGALHILARDVHNRIVIRGLNTIPLFVQLLYSPIENIQRVAAGVLCELAQDKEAAEAIEAEGATAPLTELLHSRNEGVATYAAAVLFRMSEDKPQDYKKRLSVELTSSLFRTEPMAWNETADLGLDIGAQGEPLGYRQDDPSYRSFHSGGYGQDALGMDPMMEHEMGGHHPGADYPVDGLPDLGHAQDLMDGLPPGDSNQLAWFDTDL

In the experiment the parent is B1. The experiment is described as follows: GST pull-down, immunoblot anti-β-catenin, quantified; purified proteins; mean ± SD of three experiments; parent: 1; read off a plot. A general note: Immunoblotting shows a protein as a band on a membrane.
As for chain 1 T57A, the ratio to parent was about 1.1.
The figure for chain 1 T57E is about 0.39.
